Assay results taken from PMC1361355 (PLoS Pathogens, 2006).

T1: NiV-G-Fc, a fusion construct between the ectodomain of NiV-G and the Fc region of human IgG1 (Nipah virus, UniProt Q9IH62 71-602)
T1 sequence: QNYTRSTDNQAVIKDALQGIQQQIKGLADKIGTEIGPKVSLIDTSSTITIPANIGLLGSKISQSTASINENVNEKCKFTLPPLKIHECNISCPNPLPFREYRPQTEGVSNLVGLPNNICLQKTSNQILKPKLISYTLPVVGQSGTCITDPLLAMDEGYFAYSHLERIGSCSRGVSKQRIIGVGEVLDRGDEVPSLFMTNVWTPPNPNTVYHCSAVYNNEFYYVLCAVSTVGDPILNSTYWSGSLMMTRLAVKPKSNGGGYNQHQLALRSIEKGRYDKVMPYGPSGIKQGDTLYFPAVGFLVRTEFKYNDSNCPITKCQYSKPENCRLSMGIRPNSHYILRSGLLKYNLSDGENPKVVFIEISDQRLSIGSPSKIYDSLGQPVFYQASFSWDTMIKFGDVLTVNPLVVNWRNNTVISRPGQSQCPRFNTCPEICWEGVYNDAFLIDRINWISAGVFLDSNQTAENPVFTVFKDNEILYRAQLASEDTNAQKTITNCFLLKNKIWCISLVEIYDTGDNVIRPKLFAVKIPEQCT

T2: EphB4-Fc (UniProt P54760 16-539)
T2 sequence (looked up): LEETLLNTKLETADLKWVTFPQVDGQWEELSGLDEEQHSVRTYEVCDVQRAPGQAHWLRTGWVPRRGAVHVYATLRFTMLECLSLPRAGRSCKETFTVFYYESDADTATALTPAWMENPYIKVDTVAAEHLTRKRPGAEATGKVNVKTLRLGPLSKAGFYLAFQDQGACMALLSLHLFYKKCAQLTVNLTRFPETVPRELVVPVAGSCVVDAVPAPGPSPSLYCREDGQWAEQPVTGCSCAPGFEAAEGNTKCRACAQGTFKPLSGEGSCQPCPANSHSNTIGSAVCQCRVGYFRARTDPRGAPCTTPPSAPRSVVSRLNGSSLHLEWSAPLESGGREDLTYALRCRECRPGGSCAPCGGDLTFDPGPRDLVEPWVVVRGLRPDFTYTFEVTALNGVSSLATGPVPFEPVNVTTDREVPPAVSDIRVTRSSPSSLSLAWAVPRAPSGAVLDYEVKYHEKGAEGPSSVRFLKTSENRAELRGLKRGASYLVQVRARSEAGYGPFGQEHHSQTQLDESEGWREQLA


Assays:
[1] = target: T1, NiV-G-Fc, a fusion construct between …; experiment: SPR; BIAcore 3000; […]; 1:1 Langmuir model; conditions: both partners purified
EphB4-Fc = target: T2, EphB4-Fc; experiment: SPR; unpublished data: BIAcore control, EphB4-Fc binding to ephrinB2-Fc; who was immobilised is not stated; conditions: both partners purified
[2] = target: T1, NiV-G-Fc, a fusion construct between …; experiment: flow cytometry on cells; conditions: one partner purified

Binder	koff [1]	further results
ephrinB2-Fc (soluble Fc-fusion ephrin protein, purchased) (Fc fusion) RSIVLEPIYWNSSNSKFLPGQGLVLYPQIGDKLDIICPKVDSKTVGQYEYYKVYMVDKDQADRCTIKKENTPLLNCARPDQDVKFTIKFQEFSPNLWGLEFQKNKDYYIISTSNGSLEGLDNQEGGVCQTRAMKILMKVGQDASSAGSARNHGPTRRPELEAGTNGRSSTTSPFVKPNPGSSTDGNSAGHSGNNLLGSEVA	0.000106 s⁻¹	–
ephrinB2-Fc (soluble Fc-fusion ephrin protein, purchased) (Fc fusion, Ectodomain only. The human IgG1 Fc carrier, which makes the fusion a disulfide-linked dimer, is left out. Species is inferred: the R&D Systems ephrin-B2-Fc of that period was recalled as the mouse …) RSIVLEPIYWNSSNSKFLPGQGLVLYPQIGDKLDIICPKVDSKTVGQYEYYKVYMVDKDQADRCTIKKENTPLLNCARPDQDVKFTIKFQEFSPNLWGLEFQKNKDYYIISTSNGSLEGLDNQEGGVCQTRAMKILMKVGQDASSAGSARNHGPTRRPELEAGTNGRSSTTSPFVKPNPGSSTDGNSAGHSGNNLLGSEVA	–	Kd (EphB4-Fc): 0.37 nM
human ephrinB3 stably expressed on CHO-pgsA745 cells (CHO-B3) (natural protein, UniProt Q15768 28-340, looked up, also called cell surface ephrinB3) LSLEPVYWNSANKRFQAEGGYVLYPQIGDRLDLLCPRARPPGPHSSPNYEFYKLYLVGGAQGRRCEAPPAPNLLLTCDRPDLDLRFTIKFQEYSPNLWGHEFRSHHDYYIIATSDGTREGLESLQGGVCLTRGMKVLLRVGQSPRGGAVPRKPVSEMPMERDRGAAHSLEPGKENLPGDPTSNATSRGAEGPLPPPSMPAVAGAAGGLALLLLGVAGAGGAMCWRRRRAKPSESRHPGPGSFGRGGSLGLGGGGGMGPREAEPGELGIALRGGGAADPPFCPHYEKVSGDYGHPVYIVQDGPPQSPPNIYYKV	–	Kd [2]: 0.58 nM
ephrinB3-Fc (soluble Fc-fusion ephrin protein, purchased) (Fc fusion, source: bought: R & D Systems) LSLEPVYWNSANKRFQAEGGYVLYPQIGDRLDLLCPRARPPGPHSSPNYEFYKLYLVGGAQGRRCEAPPAPNLLLTCDRPDLDLRFTIKFQEYSPNLWGHEFRSHHDYYIIATSDGTREGLESLQGGVCLTRGMKVLLRVGQSPRGGAVPRKPVSEMPMERDRGAAHSLEPGKENLPGDPTSNATSRGAEGPLPPPSMP	0.00194 s⁻¹	–
